Laboratory results from publication PMC10713829.

Assays:
[1] = target: HLA-A*01:01/hβ2m complex (empty, peptide-free or peptide-receptive) (human); experiment: fluorescence polarisation
[2] = target: HLA-A*01:01/hβ2m complex (empty, peptide-free or peptide-receptive) (human); experiment: differential scanning fluorimetry
[3] = target: HLA-A*01:01/hβ2m complex (empty, peptide-free or peptide-receptive) (human); experiment: NMR titration

## ILDTAGKEEY [NRAS_(55-64) Q61K peptide (…)]
[1]
  IC50: 260 nM
[2]
  reduction in the population of empty HLA-A*01:01 after 0.5 h with peptide: 50%
[3]
  half-life of peptide association (t1/2): < 3.7 h
